Test results: paper PMC12775136, “Mechanistic insights into recruitment and regulation of the RNA helicase UPF1 in replication-dependent histone mRNA decay”

Columns and labels:
SLBPfl = SLBPfl (human, UniProt Q14493 1-270); test: fluorescence anisotropy; 0.5 mM EDTA; Fluorescence anisotropy: 20 mM HEPES pH 7.5, 100 mM NaCl, 0.5 mM EDTA, 100 ug/ml BSA; 30 min at room temperature, read at 25 C; one-site fit with Hill slope, n=3; conditions: protein: recombinant, tags: 6xHis-TEV (N-terminal), label: 5' 6-FAM
3'hExofl (ERI1) [1] = molecular target: T1, 3'hExofl (ERI1) (human, UniProt Q8IV48 1-349); test: fluorescence anisotropy; 0.5 mM EDTA, no Mg2+; Kd shown only in figure; Fluorescence anisotropy: 20 mM HEPES pH 7.5, 100 mM NaCl, 0.5 mM EDTA, 100 ug/ml BSA; 30 min at room temperature, read at 25 C; one-site fit with Hill slope, n=3; conditions: protein: recombinant, tags: 6xHis, HRV-3C site (N-terminal), label: 5' 6-FAM, hairpin
T1 sequence: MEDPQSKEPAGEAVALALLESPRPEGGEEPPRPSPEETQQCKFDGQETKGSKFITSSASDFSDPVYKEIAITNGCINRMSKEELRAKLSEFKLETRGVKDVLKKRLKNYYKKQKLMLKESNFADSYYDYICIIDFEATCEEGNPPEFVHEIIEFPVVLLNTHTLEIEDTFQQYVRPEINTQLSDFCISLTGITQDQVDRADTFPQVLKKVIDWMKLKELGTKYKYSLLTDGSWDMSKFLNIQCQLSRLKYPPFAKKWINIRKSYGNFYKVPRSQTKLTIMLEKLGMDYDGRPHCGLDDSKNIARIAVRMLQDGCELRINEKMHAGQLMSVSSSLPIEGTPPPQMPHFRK

3'hExofl (ERI1) [2] = molecular target: T1, 3'hExofl (ERI1); test: fluorescence anisotropy; 0.5 mM EDTA, no Mg2+; affinity comparable to SL26 and SL24; Kd shown only in figure; Fluorescence anisotropy: 20 mM HEPES pH 7.5, 100 mM NaCl, 0.5 mM EDTA, 100 ug/ml BSA; 30 min at room temperature, read at 25 C; one-site fit with Hill slope, n=3; conditions: protein: recombinant; tags: 6xHis, HRV-3C site (N-terminal); label: 5' 6-FAM; partial hairpin; 3' arm lacks last 2 stem nt
UPF1-Hel;SLBP-N [3] = molecular target: T2, UPF1-Hel;SLBP-N (human;human, UniProt Q92900-2;Q14493 295-914;1-198, |); test: preparative SEC; ternary complex reconstituted for crosslinking MS; Fluorescence anisotropy: 20 mM HEPES pH 7.5, 100 mM NaCl, 0.5 mM EDTA, 100 ug/ml BSA; 30 min at room temperature, read at 25 C; one-site fit with Hill slope, n=3; conditions: protein: recombinant;recombinant; tags: 6xHis;6xHis-TEV; copies: 1;1; hairpin with 5' single-stranded U12 extension
UPF1-CHh = molecular target: T3, UPF1-CHh (human, UniProt Q92900-2 115-914); test: cryoEM structure (3.6 A); no ATP; Zn2+; Fluorescence anisotropy: 20 mM HEPES pH 7.5, 100 mM NaCl, 0.5 mM EDTA, 100 ug/ml BSA; 30 min at room temperature, read at 25 C; one-site fit with Hill slope, n=3; conditions: protein: recombinant; tags: 6xHis; hairpin with 5' single-stranded U12 extension
T3 sequence: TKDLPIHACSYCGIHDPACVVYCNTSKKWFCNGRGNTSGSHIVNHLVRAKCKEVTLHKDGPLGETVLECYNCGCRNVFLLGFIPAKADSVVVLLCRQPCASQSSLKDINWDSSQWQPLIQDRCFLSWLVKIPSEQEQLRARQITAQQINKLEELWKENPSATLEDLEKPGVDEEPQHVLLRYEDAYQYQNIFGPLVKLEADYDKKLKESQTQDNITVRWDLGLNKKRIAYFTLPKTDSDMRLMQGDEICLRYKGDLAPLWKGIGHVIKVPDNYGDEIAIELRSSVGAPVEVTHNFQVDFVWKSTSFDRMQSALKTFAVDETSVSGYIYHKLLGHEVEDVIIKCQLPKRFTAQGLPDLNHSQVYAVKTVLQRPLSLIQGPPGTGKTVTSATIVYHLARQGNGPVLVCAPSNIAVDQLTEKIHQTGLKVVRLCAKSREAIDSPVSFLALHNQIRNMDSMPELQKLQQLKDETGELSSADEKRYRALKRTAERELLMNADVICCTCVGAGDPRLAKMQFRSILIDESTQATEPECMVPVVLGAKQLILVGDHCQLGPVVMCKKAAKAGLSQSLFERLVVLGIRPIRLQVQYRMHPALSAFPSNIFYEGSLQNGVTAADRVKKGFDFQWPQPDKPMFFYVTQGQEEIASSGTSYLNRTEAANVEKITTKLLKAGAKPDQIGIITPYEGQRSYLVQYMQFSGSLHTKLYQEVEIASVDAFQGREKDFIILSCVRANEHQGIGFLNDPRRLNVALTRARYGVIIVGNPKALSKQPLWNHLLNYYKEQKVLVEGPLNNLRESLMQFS

UPF1-Hel;SLBP-N [4] = molecular target: T2, UPF1-Hel;SLBP-N; test: analytical SEC; stable UPF1-SLBP complex only with SL26; Fluorescence anisotropy: 20 mM HEPES pH 7.5, 100 mM NaCl, 0.5 mM EDTA, 100 ug/ml BSA; 30 min at room temperature, read at 25 C; one-site fit with Hill slope, n=3; conditions: protein: recombinant;recombinant; tags: 6xHis;6xHis-TEV; copies: 1;1; hairpin, 6 bp stem, 4 nt loop

Binder: CCAAAGGCUCUUUUCAGAGCCACCCA (structured_RNA) [6-FAM-SL26]
- Kd (SLBPfl; hairpin, 6 bp stem, 4 nt loop): ~6 nM
- binding result (3'hExofl (ERI1) [1]; 6 bp stem, 4 nt loop): binds

Binder: CCAAAGGCUCUUUUCAGAGCCACU (structured_RNA) [6-FAM-SL24]
- Kd (SLBPfl; hairpin, intact 6 bp stem): ~7 nM
- binding result (3'hExofl (ERI1) [1]; intact 6 bp stem): binds

Binder: CCAAAGGCUCUUUUCAGAG (structured_RNA) [6-FAM-SL19]
- binding result (3'hExofl (ERI1) [2]): binds
- Kd (SLBPfl; partial hairpin, 3' arm lacks last 2 stem nt): ~500 nM

Binder: UUUUUUUUUUUUCCAAAGGCUCUUUUCAGAGCCACCCA (structured_RNA) [U-SL (12U-26SL)]
- binding result (UPF1-Hel;SLBP-N [3]): binds
- binding result (UPF1-CHh): binds

Binder: CCAAAGGCUCUUUUCAGAGCCACCCA (structured_RNA) [SL26 RNA (SEC)]
- binding result (UPF1-Hel;SLBP-N [4]): binds
